According to paper PMC12618784:

Columns and labels:
Assay in all cases: TurboID biotin proximity labelling with mass spectrometry
Conditions in all cases: 3rd instar larval muscle tissue (mef2-Gal4); parent: 1
ATPsynD, SynO = biological target: ATPsynD, SynO
Prohibitin2 = biological target: Prohibitin2
SesB = biological target: SesB
Troponin-C = biological target: Troponin-C

ratio to parent (ATPsynD, SynO): 0.3
ratio to parent (Prohibitin2): 0.18
ratio to parent (SesB): 0.29
ratio to parent (Troponin-C): 0.07
Substance: Dmel\Tmem43wt::TurboID (from UniProt Q9VSB9) p.S333L
